Molecular target: the molecule itself
Test: PrP aggregate formation assay (PAFA, thioflavin T fluorescence)

B1: His-tagged mouse recombinant PrP (23-231) (domain or fragment)
chain: not shown
binding result: binds

— publication PMC10038035 (Journal of Enzyme Inhibition and Medicinal Chemistry, 2023)
